The test deals with T1, recombinant human TIGIT (human, UniProt Q495A1 22-141, limits assumed).
T1 construct: recombinant human TIGIT used in Carterra SPR; also called hTIGIT
T1 sequence (looked up): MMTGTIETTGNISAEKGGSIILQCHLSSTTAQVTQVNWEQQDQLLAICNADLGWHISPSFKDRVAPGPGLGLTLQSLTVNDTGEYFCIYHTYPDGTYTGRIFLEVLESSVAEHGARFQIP
Kind of test: SPR Carterra, average. As for the experimental part:
Binding affinities of VHH-Fc proteins to recombinant human TIGIT were measured by SPR using a Carterra instrument (Table 10A). […] Average values reported from measurements from 1-2 samples.

Positions count from the first letter of the chain named.

B1: TIGIT-SC212 (Fc fusion)
VHH: EVQLVESGGGLVQPGGSLRLSCAASGFLFDSYAMGWFRQAPGKEREFVAAIWRSGTLKAYADSVKGRFTISADNSKNTAYLQMNSLKPEDTAVYYCARWVGASGDYWIDYWGQGTLVTVSS
notes: VHH-Fc fusion in assay
The term Kd denotes the equilibrium constant for the complex coming apart. For orientation: koff means the first-order rate constant of dissociation. Usually kon stands for the second-order rate constant of association. For the molecule B1, the Kd came out at 17.1 nM, the koff came to 0.00126 s⁻¹ and the on-rate (kon) came out at 74100 M⁻¹ s⁻¹.

B2: TIGIT-SC206 (Fc fusion)
VHH: EVQLVESGGGLVQPGGSLRLSCAASGFLFDSYVMGWFRQAPGKEREFVAAIWRSGTLKAYADSVKGRFTISADNSKNTAYLQMNGLKPEDTAVYYCAGVGTDYGDYLFNYWGQGTLVTVSS
notes: VHH-Fc fusion in assay
As to B2, the Kd is 15.6 nM, the koff stood at 0.0157 s⁻¹ and the kon worked out at 1e+06 M⁻¹ s⁻¹.

B3: TIGIT-SC7 (Fc fusion)
VHH: EVQLVESGGGLVQPGGSLRLSCAASGRSFSMYVMGWFRQAPGKEREGVSFISGSDGSTLYADSVKGRFTISADNSKNTAYLQMNSLKPEDTAVYYCARGSIAARPVFFDYWGQGTLVTVSS
notes: VHH-Fc fusion in assay
For B3, the Kd was found to be 12.1 nM, the koff turned out to be 0.00372 s⁻¹ and the kon stood at 306000 M⁻¹ s⁻¹.

B4: TIGIT-SC104 (Fc fusion)
VHH: EVQLVESGGGLVQPGGSLRLSCAASGFTFSTYTMGWFRQAPGKEREFVAAISPSGNTYYADSVKGRFTISADNSKNTAYLQMNSLKPEDTAVYYCARWGGITFGGVYPLDYWGQGTLVTVSS
notes: VHH-Fc fusion in assay
Regarding B4, the Kd worked out at 15.2 nM, the koff stood at 0.00375 s⁻¹ and the kon was 247000 M⁻¹ s⁻¹.

B5: TIGIT-SC208 (Fc fusion)
VHH: EVQLVESGGGLVQPGGSLRLSCAASGFLFDSYVMGWFRQAPGKEREFVAAIWRSGTLKAYADSVKGRFTISADNSKNTEYLQMNSLKPEDTAVYYCARDDYGDTRRYFQHWGQGTLVTVSS
notes: VHH-Fc fusion in assay
With B5, the Kd worked out at 851 nM, the koff was 0.196 s⁻¹ and the kon came to 231000 M⁻¹ s⁻¹.

B6: TIGIT-SC209 (Fc fusion)
VHH: B5 VHH with D30N, V33W, T104Y, R106I
notes: VHH-Fc fusion in assay
Regarding B6, the Kd turned out to be 41.4 nM, the koff amounted to 0.000625 s⁻¹ and the kon came out at 15100 M⁻¹ s⁻¹.

B7: TIGIT-SC207 (Fc fusion)
VHH: B5 VHH with L28A, D30S
notes: VHH-Fc fusion in assay
Regarding B7, the Kd amounted to 12.2 nM, the koff was 0.00371 s⁻¹ and the kon turned out to be 528000 M⁻¹ s⁻¹.

B8: TIGIT-SC81 (Fc fusion)
VHH: EVQLVESGGGLVQPGGSLRLSCAASGRSFKDDAMGWFRQAPGKEREFVAAISWSGDSTHYADSVKGRFTISADNSKNTAYLQMNSLKPEDTAVYYCARWVWASGTYWIDYWGQGTLVTVSS
notes: VHH-Fc fusion in assay
Consider B8, for which the Kd stood at 15.3 nM, the koff amounted to 0.00233 s⁻¹ and the kon was 169000 M⁻¹ s⁻¹.

B9: TIGIT-SC211 (Fc fusion)
VHH: EVQLVESGGGLVQPGGSLRLSCAASGFSFSMYVMGWFRQAPGKEREFVAAIWRSGTLKAYADSVKGRFTISADNSKNTAYLQMNSLKPGDTAVYYCARDHRAMVAPFDYWGQGTLVTVSS
notes: VHH-Fc fusion in assay
B9: the Kd was 13 nM, the koff was 8.53e-05 s⁻¹ and the kon turned out to be 6540 M⁻¹ s⁻¹.

B10: TIGIT-SC100 (Fc fusion)
VHH: EVQLVESGGGLVQPGGSLRLSCAASGRTLSDRAMGWFRQAPGKEREFVAAITDNGGSTYYADSVKGRFTISADNSKNTAYLQMNSLKPEDTAVYYCARWYSSSGDYYYMDVWGQGTLVTVSS
notes: VHH-Fc fusion in assay
For B10, the Kd was found to be 15.1 nM, the koff came to 0.00183 s⁻¹ and the kon was 122000 M⁻¹ s⁻¹.

B11: TIGIT-SC101 (Fc fusion)
VHH: B10 VHH with L29F, D31S, R32Y, T52D, D53W, N54S, G55D
notes: VHH-Fc fusion in assay
Consider B11, for which the Kd is 73.4 nM, the koff turned out to be 0.00421 s⁻¹ and the kon was determined as 67800 M⁻¹ s⁻¹.

B12: TIGIT-SC8 (Fc fusion)
VHH: EVQLVESGGGLVQPGGSLRLSCAASGFAFSSYAMGWFRQAPGKEREFVARITWNGGSAYYADSVKGRFTISADNSKNTAYLQMNSLKPEDTAVYYCAAGATGWFDPWGQGTLVTVSS
notes: VHH-Fc fusion in assay
In the case of B12, the Kd was determined as 14.6 nM, the koff was found to be 0.000753 s⁻¹ and the on-rate constant (kon) was 156000 M⁻¹ s⁻¹.

B13: TIGIT-SC69 (Fc fusion)
VHH: EVQLVESGGGLVQPGGSLRLSCAASGGTFNGRAMGWFRQAPGKEREFVAAISSIGDTYYADSVKGRFTISADNSKNTAYLQMNSLKPEDTAVYYCARWRLDRRQGFYYAMDVWGQGTLVTVSS
notes: VHH-Fc fusion in assay
As to B13, the Kd stood at 12.6 nM, the koff is 0.00276 s⁻¹ and the kon was 219000 M⁻¹ s⁻¹.

B14: TIGIT-SC43 (Fc fusion)
VHH: EVQLVESGGGLVQPGGSLRLSCAASGFTFADYAMGWFRQAPGKEREMVAAIGWNSGTTEYADSVKGRFTISADNSKNTAYLQMNSLKPEDTAVYYCARDTNGWFFDFWGQGTLVTVSS
notes: VHH-Fc fusion in assay
In the case of B14, the Kd was 12 nM, the koff turned out to be 0.0013 s⁻¹ and the kon stood at 112000 M⁻¹ s⁻¹.

B15: TIGIT-SC179 (Fc fusion)
VHH: EVQLVESGGGLVQPGGSLRLSCAASGFTFSPSWMGWFRQAPGKEREWVASVLRGGYTWYADSVKGRFTISADNSKNTAYLQMNSLKPEDTAVYYCASEVASGETDYWGQGTLVTVSS
notes: VHH-Fc fusion in assay
In the case of B15, the Kd stood at 51.1 nM, the koff came out at 0.00269 s⁻¹ and the kon was found to be 50400 M⁻¹ s⁻¹.

B16: TIGIT-SC166 (Fc fusion)
VHH: B15 VHH with S30D, P31R, S97R, V99G, A100S, S101G, G102Y, E103A, T104S
notes: VHH-Fc fusion in assay
For B16, the Kd was 24.9 nM, the koff is 0.00147 s⁻¹ and the kon was 58400 M⁻¹ s⁻¹.

B17: TIGIT-SC168 (Fc fusion)
VHH: EVQLVESGGGLVQPGGSLRLSCAASGFTFDRSWMGWFRQAPGKEREWVASVLRGGYAWYADSVKGRFTISADNSKNTAYLQMSSLKPEDTAVYYCAREGSGYASDYWGQGTLVTVSS
notes: VHH-Fc fusion in assay
Consider B17, for which the Kd stood at 83.6 nM, the koff is 0.00254 s⁻¹ and the kon worked out at 30400 M⁻¹ s⁻¹.

B18: TIGIT-SC184 (Fc fusion)
VHH: EVQLVESGGGLVQPGGSLRLSCAASGFTFSPSWMGWFRQAPGKEREWVASVLRGGYTWYADSVKGRFTISADNSKNTAYLQMNSLKPEDTAVYYCTTDRGYNWNYDWGQGTLVTVSS
notes: VHH-Fc fusion in assay
For the molecule B18, the Kd was found to be 12.7 nM, the koff amounted to 0.014 s⁻¹ and the kon amounted to 1.11e+06 M⁻¹ s⁻¹.

B19: TIGIT-SC178 (Fc fusion)
VHH: B15 VHH with F29L
notes: VHH-Fc fusion in assay
For the molecule B19, the Kd stood at 296 nM, the koff was 0.0776 s⁻¹ and the kon amounted to 262000 M⁻¹ s⁻¹.

B20: TIGIT-SC163 (Fc fusion)
VHH: B17 VHH with A57T, S83N, R97T, E98D, G99K, S100R, Y102P, A103H, S104P
notes: VHH-Fc fusion in assay
In the case of B20, the Kd came to 86.4 nM, the koff was found to be 0.00269 s⁻¹ and the kon turned out to be 38400 M⁻¹ s⁻¹.

B21: TIGIT-SC49 (Fc fusion)
VHH: EVQLVESGGGLVQPGGSLRLSCAASGRTFIGYHMGWFRQAPGKEREFVAAISWTGESTLYADSVKGRFTISADNSKNTAYLQMNSLKPEDTAVYYCARDDYGDYRRYFQHWGQGTLVTVSS
notes: VHH-Fc fusion in assay
With B21, the Kd worked out at 14.4 nM, the koff worked out at 0.00102 s⁻¹ and the kon was 129000 M⁻¹ s⁻¹.

Values taken from patent US20260184782A1 (TWIST BIOSCIENCE, published 2026).
